Assay results as given in US12344648B2.

What was measured:
[1] = biological target: IL-15 receptors on CD8+ T cells and NK cells of cynomolgus monkey whole blood (cynomolgus monkey)
[2] = biological target: IL-15 receptors on CD8+ T cells and NK cells of cynomolgus monkey whole blood (cynomolgus monkey); remark: listed apart in the source

EC50 of STAT5 signaling (pSTAT5), CD8+ T cells, cynomolgus monkey whole blood [1] [ng/ml]	EC50 of STAT5 signaling (pSTAT5), NK cells, cynomolgus monkey whole blood [1] [ng/ml]	fold change of EC50 for pSTAT5 induction against native IL-15, CD8+ T cells, cynomolgus monkey whole blood [2] [fold]	fold change of EC50 for pSTAT5 induction against native IL-15, NK cells, cynomolgus monkey whole blood [2] [fold]	Substance
9.2	1.8			IL-15_E54[AzK_PEG30] (ligand)
6.3	1.9			native IL-15 (from UniProt P40933) (ligand)
1040	219	164	115	IL-15_L26[AzK_PEG30] (ligand)
15.7	3.9			IL-15_N78[AzK_PEG30] (ligand)
